Laboratory results from publication PMC9737104, “Effects of Molecular Crowding and Betaine on HSPB5 Interactions, with Target Proteins Differing in the Quaternary Structure and Aggregation Mechanism” (International Journal of Molecular Sciences, 2022).

Molecular target: the molecule itself
Experiment: AUC; sedimentation velocity at 25 °C, 48,000 rpm; GDH 0.2 mg/mL with HSPB5 0.05 mg/mL, 25 mg/mL PEG and 1 M betaine, heated 10 min at 50 °C before the run; 0.1 M Na-phosphate pH 7.6, 0.01 M NaCl

B1: bovine liver glutamate dehydrogenase, heated 10 min at 50 °C (enzyme)
chain: not shown
notes: bovine liver glutamate dehydrogenase [EC 1.4.1.2-4], homohexamer of about 360 kDa; also called GDH; source: bought: Sigma-Aldrich (suspension in ammonium sulfate), desalted on a PD-10 column
stoichiometry N: 6
